Results reported in patent US20200024330A1.

Key:
Test in all cases: cell-based or functional assay
[1] = molecular target: HIV-1 92RW021 envelope glycoprotein (Env) on pseudovirus (HIV-1)
[2] = molecular target: HIV-1 94UG103 envelope glycoprotein (Env) (HIV-1)
[3] = molecular target: HIV-1 94UG103 envelope protein (Env) on pseudovirus (HIV-1)
[4] = molecular target: HIV-1 Env of pseudovirus APV_6, clade B (HIV-1)
[5] = molecular target: HIV-1 Env of pseudovirus NL43, clade B (HIV-1)
[6] = molecular target: HIV-1 Env of pseudovirus TRJ0.58 (Acute), clade B (HIV-1)
[7] = molecular target: HIV-1 MGRM-C-006 Env (HIV-1)
[8] = molecular target: HIV-1 MGRM-C-025 Env (HIV-1)
[9] = molecular target: HIV-1 MGRM-F1-014 Env (pseudovirus) (HIV-1)
[10] = molecular target: HIV-1 MGRM-F1-022 Env (pseudovirus) (HIV-1)
[11] = molecular target: HIV-1 93IN905 Env (pseudovirus) (HIV-1)
[12] = molecular target: HIV-1 APV_17 Env (pseudovirus) (HIV-1)
[13] = molecular target: HIV-1 CMU02 envelope glycoprotein (Env) on pseudovirus (HIV-1)
[14] = molecular target: HIV-1 Env of isolate 92UG046 (subtype D) (HIV-1)
[15] = molecular target: HIV-1 Env of isolate 92UG114 (subtype D) (HIV-1)
[16] = molecular target: HIV-1 Env of isolate MG RM-D-005 (subtype D) (HIV-1)
[17] = molecular target: HIV-1 Env of isolate MG RM-D-008 (subtype D) (HIV-1)
[18] = molecular target: HIV-1 Env of isolate MG RM-D-018 (subtype D) (HIV-1)
[19] = molecular target: HIV-1 Env of isolate MG RM-D-022 (subtype D) (HIV-1)
[20] = molecular target: HIV-1 Env of isolate MG RM-D-028 (subtype D) (HIV-1)
[21] = molecular target: HIV-1 Env of isolate MGRM-C-019 (pseudovirus) (HIV-1 isolate MGRM-C-019, subtype C)
[22] = molecular target: HIV-1 Env of isolate MGRM-F1-020 (HIV-1)
[23] = molecular target: HIV-1 Env of isolate MGRM-F1-021 (HIV-1)
[24] = molecular target: HIV-1 JRCSF Env (pseudovirus) (HIV-1) (UniProt P20871)
[25] = molecular target: HIV-1 MGRM-Chronic-B-011 Env (pseudovirus) (HIV-1)
[26] = molecular target: HIV-1 MGRM-Chronic-B-018 Env (pseudovirus) (HIV-1)
[27] = molecular target: HIV-1 TRJ04551.58 Env (pseudovirus) (HIV-1)
[28] = molecular target: HIV-1 Env of isolate MGRM-G-028 (HIV-1)
[29] = molecular target: HIV-1 JR-CSF Env G471A (HIV-1 (isolate JR-CSF)) (UniProt P20871)
[30] = molecular target: HIV-1 JR-CSF Env K168A (HIV-1 (isolate JR-CSF)) (UniProt P20871)
[31] = molecular target: HIV-1 JR-CSF Env N160K (HIV-1 (isolate JR-CSF)) (UniProt P20871)

| Substance | IC50, pseudovirus neutralization [11] [µg/mL] | IC50, pseudovirus neutralization [12] [µg/mL] | IC50 (ug/ml), neutralizing activity [13] [µg/mL] | IC50 (µg/mL), pseudovirus neutralization [14] [µg/mL] | IC50 (µg/mL), pseudovirus neutralization [15] [µg/mL] | IC50 (µg/mL), pseudovirus neutralization [16] [µg/mL] | IC50 (µg/mL), pseudovirus neutralization [17] [µg/mL] | IC50 (µg/mL), pseudovirus neutralization [18] [µg/mL] | IC50 (µg/mL), pseudovirus neutralization [19] [µg/mL] | IC50 (µg/mL), pseudovirus neutralization [20] [µg/mL] | IC50 (µg/mL) neutralization [21] [µg/mL] | IC50 [22] [µg/mL] | IC50 [23] [µg/mL] | IC50, pseudovirus neutralization [24] [µg/mL] | IC50, pseudovirus neutralization [25] [µg/mL] | IC50, pseudovirus neutralization [26] [µg/mL] | IC50, pseudovirus neutralization [27] [µg/mL] | IC50, pseudovirus neutralization [28] [µg/mL] | Fold IC50 increase relative to wild-type [29] [fold] | Fold IC50 increase relative to wild-type [30] [fold] | other results |
| --- | --- | --- | --- | --- | --- | --- | --- | --- | --- | --- | --- | --- | --- | --- | --- | --- | --- | --- | --- | --- | --- |
| 1496_C09 (PG9) (TCN-109) (antibody) |  |  |  |  |  |  |  |  |  |  |  |  |  |  |  |  |  |  |  |  | IC50 (µg/ml), pseudovirus neutralization [1]: 0.05 µg/mL; IC50 (µg/ml), pseudovirus neutralization [2]: 0.24 µg/mL; IC50 neutralization [2]: 0.31 µg/mL; neutralization IC50 [3]: 0.173 µg/mL; IC50 (µg/ml), pseudovirus neutralization [4]: 0.12 µg/mL; IC50 (µg/ml), pseudovirus neutralization [5]: 0.32 µg/mL; IC50 (µg/ml), pseudovirus neutralization [6]: 0.43 µg/mL; IC50 [7]: 0.23 µg/mL; IC50 [8]: 0.17 µg/mL; IC50 (µg/ml), pseudovirus neutralization [9]: 0.01 µg/mL; IC50 (µg/ml), pseudovirus neutralization [10]: 0.06 µg/mL |
| 4838_L06 (PGT-121) (antibody) | 0.005 | 0.066 | > 10 | > 50 | 0.004 | > 50 | > 50 | 0.005 | > 50 | 0.009 | > 50 | 0.167 | 0.099 | 0.027 | > 50 | > 50 | 7.09 |  |  |  | neutralization IC80 [11]: 0.0302 µg/mL; neutralization IC90 [11]: 0.0645 µg/mL; neutralization IC90 [24]: 0.223 µg/mL; neutralization IC95 [24]: 0.417 µg/mL |
| 4858_P08 (PGT-123) (antibody) | 0.004 | 0.114 | > 10 | > 50 | 0.005 | > 50 | > 50 | 0.007 | > 50 | 0.132 | > 50 | 0.051 | 0.307 | 0.046 | > 50 | > 50 | 16.9 | 0.008 | 1.3 | 0.8 | IC50, pseudovirus neutralization [13]: > 10 µg/mL; IC80, pseudovirus neutralization [13]: > 10 µg/mL; IC90 (pseudovirus neutralization) [13]: > 10 µg/mL; IC95, pseudovirus neutralization [13]: > 10 µg/mL; Fold IC50 increase relative to wild-type [31]: 1 fold |
| 4877_D15 (PGT-122) (antibody) | 0.013 | 0.25 | > 10 | > 50 | 0.011 | > 50 | > 50 | 0.007 | > 50 | 3.34 | > 50 | 0.321 | 2.3 | 0.057 | > 50 | > 50 | > 50 | 0.01 |  |  |  |
| 5123_A06 (PGT-125) (antibody) | 0.009 | 8.06 | > 10 | > 50 | 0.349 | > 50 | > 50 | > 50 | 0.04 | > 50 | 0.13 | > 50 | > 50 | 0.004 | 3.23 | > 50 | 0.019 | 0.012 | 1 | 0.9 | neutralization IC50 [13]: > 10 µg/mL; neutralization IC80 [13]: > 10 µg/mL; neutralization IC90 [13]: > 10 µg/mL; neutralization IC95 [13]: > 10 µg/mL; Fold IC50 increase relative to wild-type [31]: 0.5 fold |
| 5141_B17 (PGT-126) (antibody) | 0.015 | 0.353 | > 10 | > 50 | 0.038 | 0.792 | 43.1 | 0.009 | > 50 | > 50 | 0.005 | > 50 | > 50 | 0.008 | 0.108 | 0.052 | 0.025 | 0.012 | 1.2 | 0.7 | IC50 [11]: 0.0194 µg/mL; IC80 [11]: 0.0676 µg/mL; IC90 [11]: 0.14 µg/mL; IC95 [11]: 0.275 µg/mL; Fold IC50 increase relative to wild-type [31]: 0.5 fold; IC50 [24]: 0.0061 µg/mL; IC80 [24]: 0.018 µg/mL; IC90 [24]: 0.0339 µg/mL; IC95 [24]: 0.0608 µg/mL |
| 5145_B14 (PGT-127) (antibody) | 0.024 | 10.4 |  | > 50 | 7.09 | 6.02 | > 50 | 0.021 | > 50 | > 50 | 0.017 | > 50 | > 50 | 0.018 | 0.297 | 1.9 | 0.063 | 0.032 | 1.2 | 1.9 | Fold IC50 increase relative to wild-type [31]: 0.8 fold |
